Laboratory results reported in patent US20180371492A1 (WAYNE STATE UNIVERSITY, published 2018).

Biological target: T1, purified androgen receptor (AR) (human, UniProt P10275 1-920, limits assumed)
T1 construct: also called purified AR
T1 sequence: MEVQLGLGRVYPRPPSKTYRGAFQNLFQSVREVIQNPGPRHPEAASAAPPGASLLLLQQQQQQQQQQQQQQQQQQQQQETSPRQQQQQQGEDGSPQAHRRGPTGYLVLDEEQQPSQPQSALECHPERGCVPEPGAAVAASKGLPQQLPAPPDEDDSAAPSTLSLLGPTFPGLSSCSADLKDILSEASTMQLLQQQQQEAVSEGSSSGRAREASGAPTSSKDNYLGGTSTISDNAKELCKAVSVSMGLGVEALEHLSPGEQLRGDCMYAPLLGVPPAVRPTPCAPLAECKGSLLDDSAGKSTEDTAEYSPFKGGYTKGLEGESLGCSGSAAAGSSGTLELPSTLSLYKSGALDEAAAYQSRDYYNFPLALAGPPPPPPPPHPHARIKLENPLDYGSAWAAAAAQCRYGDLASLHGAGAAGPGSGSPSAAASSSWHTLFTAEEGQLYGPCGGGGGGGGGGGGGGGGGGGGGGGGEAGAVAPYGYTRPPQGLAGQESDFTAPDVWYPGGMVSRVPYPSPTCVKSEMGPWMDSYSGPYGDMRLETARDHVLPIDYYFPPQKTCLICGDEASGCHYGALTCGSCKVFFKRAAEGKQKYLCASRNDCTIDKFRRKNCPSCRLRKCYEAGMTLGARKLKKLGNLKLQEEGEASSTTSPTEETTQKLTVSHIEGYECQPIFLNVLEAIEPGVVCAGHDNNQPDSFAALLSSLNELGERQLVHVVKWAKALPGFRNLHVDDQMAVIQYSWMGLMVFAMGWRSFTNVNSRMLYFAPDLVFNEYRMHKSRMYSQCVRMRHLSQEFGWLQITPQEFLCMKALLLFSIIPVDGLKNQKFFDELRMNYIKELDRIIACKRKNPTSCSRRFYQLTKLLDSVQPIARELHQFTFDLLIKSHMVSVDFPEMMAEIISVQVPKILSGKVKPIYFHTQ
Assay: SPR, purified proteins

Kd: 19 nM
B1: ELK1 (ETS transcription factor (ELK1), transcript variant 1) (other)
chain: MDPSVTLWQFLLQLLREQGNGHIISWTSRDGGEFKLVDAEEVARLWGLRKNKTNMNYDKLSRALRYYYDKNIIRKVSGQKFVYKFVSYPEVAGCSTEDCPPQPEVSVTSTMPNVAPAAIHAAPGDTVSGKPGTPKGAGMAGPGGLARSSRNEYMRSGLYSTFTIQSLQPQPPPHPRPAVVLPNAAPAGAAAPPSGSRSTSPSPLEACLEAEEAGLPLQVILTPPEAPNLKSEELNVEPGLGRALPPEVKVEGPKEELEVAGERGFVPETTKAEPEVPPQEGVPARLPAVVMDTAGQAGGHAASSPEISQPQKGRKPRDLELPLSPSLLGGPGPERTPGSGSGSGLQAPGPALTPSLLPTHTLTPVLLTPSSLPPSIHFWSTLSPIAPRSPAKLSFQFPSSGSAQVHIPSISVDGLSTPVVLSPGPQKP
notes: also called purified ELK1; ELK1 polypeptide
